Measured values: patent publication CN1948343A (BEIJING ANBOTE GENE ENGINEERIN, dated 2007)

B1: 抗TNF-α鼠源单链抗体 TNF-scFv (scFv, part only; not given: C-terminal tail of construct, part only)
scFv, part: QIQLVQSGPELKKPGETVKISCKASGYTFTHYGMNWVKQAPGKGLKWMGWINTYTGEPTYADDFKEHFAFSLETSASTVFLQINNLKNEDTATYFCARERGDAMDYWGQGTSVTVSSTSGGGGSGGGGSGGGGSSRSIVMTQTPKFLLVSAGDRVTITCTASQSVSNDVVWYQQKPGQSPKMLMYSAFNRYTGVPDRFTGRGYGTDFTFTISSVQAEDLAVYFCQQDYNSPRTFGGGTKLEIK
B2: 抗TNF-α基因工程四价单链抗体 TNF-TeAb (scFv)
chain: B1 scFv, part

Experiments:
重组人TNF-α [1] = molecular target: T1, 重组人TNF-α (human, UniProt P01375 77-233); test: cell-based or functional assay
T1 sequence (P01375 77-233 limits assumed): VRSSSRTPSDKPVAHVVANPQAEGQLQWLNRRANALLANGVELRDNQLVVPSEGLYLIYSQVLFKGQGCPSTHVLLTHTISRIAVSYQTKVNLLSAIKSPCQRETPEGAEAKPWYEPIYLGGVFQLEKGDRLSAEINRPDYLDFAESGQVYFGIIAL

重组人TNF-α [2] = molecular target: T1, 重组人TNF-α; test: competition ELISA: inhibition of binding of 1 μg/ml TNF-α to coated L929 TNF receptor extract

Binder	MTT法: 抑制TNF-α对L929细胞的细胞毒作用, 50%抑制的浓度(IC50) (重组人TNF-α [1]) [nM]	IC50 (重组人TNF-α [2]) [nM]	MTT法: 抑制TNF-α对L929细胞的细胞毒作用, 50%的抑制浓度(IC50) (重组人TNF-α [1]) [nM]
B1	40	3200	
B2		~400	2.5
